Data from patent publication US20040214774A1.

Experiments:
[1] = target: apoE4 (human) (UniProt P02649); assay: competitive inhibition ELISA: lipidated apoE4 100 nM preincubated with Aβ12-28P (0-400 nM), added to Aβ1-40 coated wells; one-site competition fit
[2] = target: apoE3 (human) (UniProt P02649); assay: cell-based or functional assay
[3] = target: apoE4 (human) (UniProt P02649); assay: cell-based or functional assay

apoE4 (human), sequence (P02649 19-317 C130R limits assumed): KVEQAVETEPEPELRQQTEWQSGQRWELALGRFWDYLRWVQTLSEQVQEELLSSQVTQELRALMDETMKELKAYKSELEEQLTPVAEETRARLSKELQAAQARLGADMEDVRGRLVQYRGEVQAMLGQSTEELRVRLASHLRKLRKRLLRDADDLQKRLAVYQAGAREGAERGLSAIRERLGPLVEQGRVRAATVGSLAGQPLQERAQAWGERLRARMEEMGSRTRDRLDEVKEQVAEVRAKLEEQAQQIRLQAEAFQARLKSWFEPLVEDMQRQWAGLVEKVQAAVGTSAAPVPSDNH
apoE3 (human), sequence (P02649 19-317 limits assumed): as the sequence (P02649 19-317 C130R limits assumed) above, with R112C counted along it

IC50 [1]: 36.7 nM | relative reduction in Thioflavin-T fluorescence of Aβ1-42 with apoE3 after 24 h of incubation [2]: 14.5% | relative reduction in Thioflavin-T fluorescence of Aβ1-42 with apoE3 by day six [2]: 48.3% | relative reduction in Thioflavin-T fluorescence of Aβ1-42 with apoE4 after 24 h of incubation [3]: 25.3% | relative reduction in Thioflavin-T fluorescence of Aβ1-42 with apoE4 by day six [3]: 52.3%
Substance: Aβ12-28P (peptide)
